Measured values taken from patent publication US20120231014A1.

Assays:
[1] = target: PTPσ-Fc fusion protein (recombinant mouse PTPσ extracellular domain, short isoform, fused to Fc) (mouse) (UniProt B0V2N1); test: cell-free plate assay: PTPσ-Fc on protein A plates, increasing Ncn-AP, bound AP activity, Scatchard analysis
[2] = target: PTPσ-Fc fusion protein (recombinant mouse PTPσ extracellular domain, short isoform, fused to Fc) (mouse) (UniProt B0V2N1); test: cell-free plate assay: PTPσ-Fc on protein A plates, biotinylated aggrecan detected with streptavidin-AP, hyperbolic curve fit

Row | Kd [1] [nM] | Kd [2] [nM] | Substance
1 | 11 |  | Ncn-AP fusion protein (mouse neurocan amino acids 1-963 fused to placental alkaline phosphatase) (from UniProt P55066 23-963; P05187 23-511)
2 |  | 19 | biotinylated purified aggrecan (bovine; Sigma) (from UniProt P13608 17-2364)
